Experimental data taken from article PMC5759264.

Target: Recombinant human His-tagged CEACAM5 extracellular domain (human) (UniProt P06731)
Experiment: BLI

Sequence of UniProt P06731 (P06731 35-702): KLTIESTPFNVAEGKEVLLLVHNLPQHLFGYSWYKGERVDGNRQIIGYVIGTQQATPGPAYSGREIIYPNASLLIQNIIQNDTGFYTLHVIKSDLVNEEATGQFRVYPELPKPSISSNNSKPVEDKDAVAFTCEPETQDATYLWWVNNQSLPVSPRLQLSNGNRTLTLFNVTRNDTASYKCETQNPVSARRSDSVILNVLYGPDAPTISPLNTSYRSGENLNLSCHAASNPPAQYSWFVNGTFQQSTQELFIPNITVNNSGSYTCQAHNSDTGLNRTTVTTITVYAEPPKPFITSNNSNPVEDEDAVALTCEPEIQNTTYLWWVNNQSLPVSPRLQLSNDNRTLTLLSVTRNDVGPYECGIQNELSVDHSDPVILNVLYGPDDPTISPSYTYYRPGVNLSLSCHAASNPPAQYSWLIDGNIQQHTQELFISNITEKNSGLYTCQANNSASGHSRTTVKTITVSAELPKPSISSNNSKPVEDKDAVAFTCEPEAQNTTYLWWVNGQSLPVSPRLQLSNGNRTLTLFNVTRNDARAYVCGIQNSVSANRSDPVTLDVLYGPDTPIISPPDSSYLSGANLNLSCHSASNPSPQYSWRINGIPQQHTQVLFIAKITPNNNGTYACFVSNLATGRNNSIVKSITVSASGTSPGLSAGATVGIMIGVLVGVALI

Substance “common light chain IgG variant 4F02 (from UniProt P01624)” has a Kd of 2.5 nM.

“common light chain IgG variant 4G07 (from UniProt P01624)” was tested, and the Kd was 0.6 nM.
